Experimental data from patent US20210338733A1.

Target: CD19 on CD19 positive target cell lines (UniProt P15391)
Assay: cell-based or functional assay

Chain of CD19 on CD19 positive target cell lines (P15391 20-556 limits assumed): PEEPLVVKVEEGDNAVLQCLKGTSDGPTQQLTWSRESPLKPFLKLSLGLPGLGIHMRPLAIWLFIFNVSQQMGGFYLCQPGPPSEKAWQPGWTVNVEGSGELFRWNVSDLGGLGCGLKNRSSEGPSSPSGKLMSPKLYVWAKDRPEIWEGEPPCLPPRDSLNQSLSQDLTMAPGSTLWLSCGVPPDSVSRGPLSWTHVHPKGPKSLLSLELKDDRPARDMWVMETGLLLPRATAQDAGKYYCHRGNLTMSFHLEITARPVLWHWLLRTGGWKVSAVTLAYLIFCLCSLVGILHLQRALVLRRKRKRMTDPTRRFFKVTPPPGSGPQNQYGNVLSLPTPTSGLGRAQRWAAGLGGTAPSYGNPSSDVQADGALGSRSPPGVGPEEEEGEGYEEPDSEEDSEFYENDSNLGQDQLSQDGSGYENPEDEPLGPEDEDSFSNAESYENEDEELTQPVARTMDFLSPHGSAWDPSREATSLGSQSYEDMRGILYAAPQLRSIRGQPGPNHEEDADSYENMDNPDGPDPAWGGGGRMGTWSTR

CD40L expression by CD4+ CAR T cells (flow cytometry, 24 hours of coincubation) (fold of the upregulation by CART-TnMUC1): 2
Substance: CD19 CAR as expressed on CART-19 cells (anti-CD19 FMC63 scFv, human CD8α hinge and transmembrane, human 4-1BB and CD3ζ) (receptor)
